B1: KRR1 small subunit processome component (Saccharomyces cerevisiae), P25586 (parent)
chain: MVSTHNRDKPWDTDDIDKWKIEEFKEEDNASGQPFAEESSFMTLFPKYRESYLKTIWNDVTRALDKHNIACVLDLVEGSMTVKTTRKTYDPAIILKARDLIKLLARSVPFPQAVKILQDDMACDVIKIGNFVTNKERFVKRRQRLVGPNGNTLKALELLTKCYILVQGNTVSAMGPFKGLKEVRRVVEDCMKNIHPIYHIKELMIKRELAKRPELANEDWSRFLPMFKKRNVARKKPKKIRNVEKKVYTPFPPAQLPRKVDLEIESGEYFLSKREKQMKKLNEQKEKQMEREIERQEERAKDFIAPEEEAYKPNQN
partner: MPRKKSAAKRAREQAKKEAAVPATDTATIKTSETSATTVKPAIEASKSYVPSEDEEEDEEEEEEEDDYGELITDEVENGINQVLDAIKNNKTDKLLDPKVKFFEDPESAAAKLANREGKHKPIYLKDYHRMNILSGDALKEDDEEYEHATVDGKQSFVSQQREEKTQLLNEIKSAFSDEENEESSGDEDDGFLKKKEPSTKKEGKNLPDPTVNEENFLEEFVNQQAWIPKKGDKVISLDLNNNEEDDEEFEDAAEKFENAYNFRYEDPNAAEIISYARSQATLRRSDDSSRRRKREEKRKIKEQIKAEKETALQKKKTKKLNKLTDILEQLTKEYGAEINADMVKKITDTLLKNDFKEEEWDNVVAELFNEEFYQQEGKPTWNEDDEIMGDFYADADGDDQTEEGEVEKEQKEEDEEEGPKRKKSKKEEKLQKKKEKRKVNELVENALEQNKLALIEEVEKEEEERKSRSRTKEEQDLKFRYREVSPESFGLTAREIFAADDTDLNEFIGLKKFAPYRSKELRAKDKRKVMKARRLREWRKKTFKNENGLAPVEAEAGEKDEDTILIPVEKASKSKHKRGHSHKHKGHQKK

Variants of: B1
Conditions: with kri1_yeast KRI1, P42846

effect of a mutation on the interaction | Variant
decreasing interaction | F45L;L95S;R207G
decreasing interaction | K20E;K66N;C162R;D261A

Source: IntAct's records for PubMed 11027267
